# Key:
# [1] = target: T1, human TL1A extracellular domain with N-terminal HIS and FLAG tag (human, UniProt O95150 72-251); test: SPR run 3; supernatant on Protein A; TL1A 10 ug/mL; timepoint 59
# T1 construct: whole entry named. ~70 kDa fraction purified by gel filtration
# T1 sequence: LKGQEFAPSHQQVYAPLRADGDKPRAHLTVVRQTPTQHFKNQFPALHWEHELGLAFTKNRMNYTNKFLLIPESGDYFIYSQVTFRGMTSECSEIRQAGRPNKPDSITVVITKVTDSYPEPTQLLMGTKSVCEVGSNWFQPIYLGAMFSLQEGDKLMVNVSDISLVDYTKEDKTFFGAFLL
# From the text: (§1) 1.5. Antibody expression and antigen binding as determined by SPR. Using a CM5 sensor chip (GE Healthcare) Protein A (Pierce) was coupled to the chip surface using an amine coupling kit (GE Healthcare). Protein A was coupled on flow cell 1 and 2 (or alternatively 3 and 4) using a BIACORE® T200. […] The amount of supernatant or purified protein (as well as the concentration) injected during the capture stage varied between runs and is specified in the header of the Tables 3-11. At the end of injection of the supernatant or purified antibody the change in response units was measured. This value was reported as Capture Level in Tables 3-11. […] The response units were measured prior to the end of the dissociation phase. […] The sensorgrams were double referenced (flow cell 2 is subtracted from flow cell 1 and a buffer blank). As there were a large number of antibody variants to screen, these were screened across different runs (Tables 3-11). […] A summary of the conditions used in each run is below:
# (§2) 2.1. […] In some experiment the antibodies were purified using Protein A chromatography (See 1.4) and purified antibodies were used in BIACORE® (GE Healthcare) experiments.
# [2] = target: T1, human TL1A extracellular domain with …; test: SPR run 3; supernatant on Protein A; TL1A 10 ug/mL; timepoint 590
# From the text: as §1, §2
# [3] = target: T2, human TL1A extracellular domain with N-terminal HIS and FLAG tag (human, UniProt O95150 72-251); test: cell-based or functional assay
# T2 sequence: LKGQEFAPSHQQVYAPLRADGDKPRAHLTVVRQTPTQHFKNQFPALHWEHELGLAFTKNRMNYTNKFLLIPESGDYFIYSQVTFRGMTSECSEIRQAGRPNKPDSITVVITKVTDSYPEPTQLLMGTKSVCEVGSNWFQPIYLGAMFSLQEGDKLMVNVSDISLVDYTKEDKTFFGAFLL
# [4] = target: T2, human TL1A extracellular domain with …; test: SPR Run 7, antibody on Protein A, TL1A 5 ug/mL, timepoint 44
# Procedure, shortened: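 Biacore T200 SPR with antibody (supernatant or Protein A-purified) captured on Protein A amine-coupled to a CM5 chip; capture level recorded as response change at end of capture.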
# [5] = target: T2, human TL1A extracellular domain with …; test: SPR Run 7, antibody on Protein A, TL1A 5 ug/mL, timepoint 220
# Procedure, shortened: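 Double-referenced sensorgrams (reference flow cell and buffer blank subtracted) provided the late-dissociation response for antibodies held by chip-bound Protein A. These antibodies came either as expression supernatant or as Protein A-purified material. The capture amount differed per run and was measured as the RU increase after loading.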
Binder,TL1A Binding Level (Early) [1] [RU],TL1A Binding Level (Late) [2] [RU],"Antibody IC50, TL1A induced caspase potency assay in TF-1 cells [3] [ng/mL]","Fold improvement over 320-179, TL1A induced caspase potency assay in TF-1 cells [3] [fold]",TL1A Binding Level (Early) [4] [RU],TL1A Binding Level (Late) [5] [RU]
"320-256 (antibody, human IgG1, name in Kabat numbering, V domains shown, human IgG1, lambda) VH: QVQLVQSGAEVKKPGASVKVSCKASGYTFTSYDINWVRQAPGQGLEWMGWLNPNSGNTGYAQKFQGRVTMTADRSTSTAYMELSSLRSEDTAVYYCAREVPETAAFEYWGQGTLVTVSS VL: QSVLTQPPSVSGAPGQRVTISCTSSSSDILAGLGVHWYQQLPGTAPKLLIEGYYNRPSGVPDRFSGSKSGTSASLTITGLLPEDEGDYYCQSYDGTLSALFGGGTKLTVLG",30,10,–,–,–,–
"320-277 (antibody, human IgG1, V domains shown) VH: QVQLVQSGAEVKKPGASVKVSCKASGYTFTSYDINWVRQAPGQGLEWMGWLNPNSGNTGYAQKFQGRVTMTADRSTSTAYMELSSLRSEDTAVYYCAREVPETAAFEYWGQGTLVTVSS VL: QSVLTQPPSVSGAPGQRVTISCTSSSSDIGAGSGVHWYQQLPGTAPKLLIEGYYNRPSGVPDRFSGSKSGTSASLTITGLLPEDEGDYYCQSYDGTLSALFGGGTKLTVLG",–,–,3,3,–,–
"320-267 (antibody, human IgG1, V domains shown) VH: QVQLVQSGAEVKKPGASVKVSCKASGYTFTSYDINWVRQAPGQGLEWMGWLNPNSGNTGYAQKFQGRVTMTADRSTSTAYMELSSLRSEDTAVYYCAREVPETAAFEYWGQGTLVTVSS VL: QSVLTQPPSVSGAPGQRVTISCTSSSSDIGAALGVHWYQQLPGTAPKLLIEGYYNRPSGVPDRFSGSKSGTSASLTITGLLPEDEGDYYCQSYDGTLSALFGGGTKLTVLG",–,–,10,4,–,–
"320-278 (antibody, human IgG1, V domains shown) VH: QVQLVQSGAEVKKPGASVKVSCKASGYTFTSYDINWVRQAPGQGLEWMGWLNPNSGNTGYAQKFQGRVTMTADRSTSTAYMELSSLRSEDTAVYYCAREVPETAAFEYWGQGTLVTVSS VL: QSVLTQPPSVSGAPGQRVTISCTSSSSDIGAGQGVHWYQQLPGTAPKLLIEGYYNRPSGVPDRFSGSKSGTSASLTITGLLPEDEGDYYCQSYDGTLSALFGGGTKLTVLG",–,–,10,2,–,–
"320-547 (antibody, human IgG1, name in Kabat numbering, V domains shown, full-length human IgG1, lambda) VH: QVQLVQSGAEVKKPGASVKVSCKASGYTFTSYDINWVRQAPGQGLEWMGWLNPNSGYTGYAQKFQGRVTMTADRSTSTAYMELSSLRSEDTAVYYCAREVPETAAFEYWGQGTLVTVSS VL: QSVLTQPPSVSGAPGQRVTISCTSSSSDIGAGLGVHWYQQLPGTAPKLLIEGYYNRPSGVPDRFSGSKSGTSASLTITGLLPEDEGDYYCQSYDGTLSALFGGGTKLTVLG",–,–,4,10,77,75
"320-264 (antibody, human IgG1, name in Kabat numbering, V domains shown, human IgG1, lambda) VH: QVQLVQSGAEVKKPGASVKVSCKASGYTFTSYDINWVRQAPGQGLEWMGWLNPNSGNTGYAQKFQGRVTMTADRSTSTAYMELSSLRSEDTAVYYCAREVPETAAFEYWGQGTLVTVSS VL: QSVLTQPPSVSGAPGQRVTISCTSSSSDIGLGLGVHWYQQLPGTAPKLLIEGYYNRPSGVPDRFSGSKSGTSASLTITGLLPEDEGDYYCQSYDGTLSALFGGGTKLTVLG",199,184,–,–,–,–
"320-260 (antibody, human IgG1, name in Kabat numbering, V domains shown, human IgG1, lambda) VH: QVQLVQSGAEVKKPGASVKVSCKASGYTFTSYDINWVRQAPGQGLEWMGWLNPNSGNTGYAQKFQGRVTMTADRSTSTAYMELSSLRSEDTAVYYCAREVPETAAFEYWGQGTLVTVSS VL: QSVLTQPPSVSGAPGQRVTISCTSSSSDIGQGLGVHWYQQLPGTAPKLLIEGYYNRPSGVPDRFSGSKSGTSASLTITGLLPEDEGDYYCQSYDGTLSALFGGGTKLTVLG",182,165,–,–,–,–
"320-269 (antibody, human IgG1, name in Kabat numbering, V domains shown, human IgG1, lambda) VH: QVQLVQSGAEVKKPGASVKVSCKASGYTFTSYDINWVRQAPGQGLEWMGWLNPNSGNTGYAQKFQGRVTMTADRSTSTAYMELSSLRSEDTAVYYCAREVPETAAFEYWGQGTLVTVSS VL: QSVLTQPPSVSGAPGQRVTISCTSSSSDIGAQLGVHWYQQLPGTAPKLLIEGYYNRPSGVPDRFSGSKSGTSASLTITGLLPEDEGDYYCQSYDGTLSALFGGGTKLTVLG",126,93,–,–,–,–
"320-259 (antibody, human IgG1, name in Kabat numbering, V domains shown, human IgG1, lambda) VH: QVQLVQSGAEVKKPGASVKVSCKASGYTFTSYDINWVRQAPGQGLEWMGWLNPNSGNTGYAQKFQGRVTMTADRSTSTAYMELSSLRSEDTAVYYCAREVPETAAFEYWGQGTLVTVSS VL: QSVLTQPPSVSGAPGQRVTISCTSSSSDIGSGLGVHWYQQLPGTAPKLLIEGYYNRPSGVPDRFSGSKSGTSASLTITGLLPEDEGDYYCQSYDGTLSALFGGGTKLTVLG",194,179,–,–,–,–
"320-257 (antibody, human IgG1, name in Kabat numbering, V domains shown, human IgG1, lambda) VH: QVQLVQSGAEVKKPGASVKVSCKASGYTFTSYDINWVRQAPGQGLEWMGWLNPNSGNTGYAQKFQGRVTMTADRSTSTAYMELSSLRSEDTAVYYCAREVPETAAFEYWGQGTLVTVSS VL: QSVLTQPPSVSGAPGQRVTISCTSSSSDIWAGLGVHWYQQLPGTAPKLLIEGYYNRPSGVPDRFSGSKSGTSASLTITGLLPEDEGDYYCQSYDGTLSALFGGGTKLTVLG",83,18,–,–,–,–
"320-265 (antibody, human IgG1, name in Kabat numbering, V domains shown, human IgG1, lambda) VH: QVQLVQSGAEVKKPGASVKVSCKASGYTFTSYDINWVRQAPGQGLEWMGWLNPNSGNTGYAQKFQGRVTMTADRSTSTAYMELSSLRSEDTAVYYCAREVPETAAFEYWGQGTLVTVSS VL: QSVLTQPPSVSGAPGQRVTISCTSSSSDIGWGLGVHWYQQLPGTAPKLLIEGYYNRPSGVPDRFSGSKSGTSASLTITGLLPEDEGDYYCQSYDGTLSALFGGGTKLTVLG",168,69,–,–,–,–
"320-262 (antibody, human IgG1, name in Kabat numbering, V domains shown, human IgG1, lambda) VH: QVQLVQSGAEVKKPGASVKVSCKASGYTFTSYDINWVRQAPGQGLEWMGWLNPNSGNTGYAQKFQGRVTMTADRSTSTAYMELSSLRSEDTAVYYCAREVPETAAFEYWGQGTLVTVSS VL: QSVLTQPPSVSGAPGQRVTISCTSSSSDIGHGLGVHWYQQLPGTAPKLLIEGYYNRPSGVPDRFSGSKSGTSASLTITGLLPEDEGDYYCQSYDGTLSALFGGGTKLTVLG",209,190,–,–,–,–
"320-261 (antibody, human IgG1, name in Kabat numbering, V domains shown, human IgG1, lambda) VH: QVQLVQSGAEVKKPGASVKVSCKASGYTFTSYDINWVRQAPGQGLEWMGWLNPNSGNTGYAQKFQGRVTMTADRSTSTAYMELSSLRSEDTAVYYCAREVPETAAFEYWGQGTLVTVSS VL: QSVLTQPPSVSGAPGQRVTISCTSSSSDIGDGLGVHWYQQLPGTAPKLLIEGYYNRPSGVPDRFSGSKSGTSASLTITGLLPEDEGDYYCQSYDGTLSALFGGGTKLTVLG",86,29,–,–,–,–
"320-268 (antibody, human IgG1, name in Kabat numbering, V domains shown, human IgG1, lambda) VH: QVQLVQSGAEVKKPGASVKVSCKASGYTFTSYDINWVRQAPGQGLEWMGWLNPNSGNTGYAQKFQGRVTMTADRSTSTAYMELSSLRSEDTAVYYCAREVPETAAFEYWGQGTLVTVSS VL: QSVLTQPPSVSGAPGQRVTISCTSSSSDIGASLGVHWYQQLPGTAPKLLIEGYYNRPSGVPDRFSGSKSGTSASLTITGLLPEDEGDYYCQSYDGTLSALFGGGTKLTVLG",28,7,–,–,–,–
"320-266 (antibody, human IgG1, name in Kabat numbering, V domains shown, human IgG1, lambda) VH: QVQLVQSGAEVKKPGASVKVSCKASGYTFTSYDINWVRQAPGQGLEWMGWLNPNSGNTGYAQKFQGRVTMTADRSTSTAYMELSSLRSEDTAVYYCAREVPETAAFEYWGQGTLVTVSS VL: QSVLTQPPSVSGAPGQRVTISCTSSSSDIGYGLGVHWYQQLPGTAPKLLIEGYYNRPSGVPDRFSGSKSGTSASLTITGLLPEDEGDYYCQSYDGTLSALFGGGTKLTVLG",218,192,–,–,–,–

# Reference: patent US20170081400A1 (CEPHALON, published 2017)
